The subject of one data set is T1, Gαt-rod peptide.
T1 sequence: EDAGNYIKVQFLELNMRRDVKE

A further data set concerns the target Bovine brain calmodulin (UniProt P62157).

These results are taken from patent publication US20040063148A1.

Consider “PDE1A1 of bovine taste tissue (PDE of anion exchange fraction 11)”, for which, in the data set on Gαt-rod peptide, the “PDE activity of fraction 11 (1 µM cGMP as substrate), 100 µM peptide” value was “The PDE activities of both fractions 6 and 11 are stimulated by the presence of the Gαt-rod peptide”.

For “PDE1A7 of bovine taste tissue (PDE of anion exchange fractions 6-7)”, the “PDE activity of fraction 6 (1 µM cGMP as substrate), 100 µM peptide” value with Gαt-rod peptide was “The PDE activities of both fractions 6 and 11 are stimulated by the presence of the Gαt-rod peptide”.

Consider “PDE4 of bovine taste tissue (anion exchange fractions 19-23)”, for which, in the data set with Gαt-rod peptide, the “cAMP hydrolyzing activity of fractions 19-23, 100 µM peptide” value was “The cAMP hydrolyzing activity of this forth peak is neither Ca^2+/CaM nor Gαt-rod peptide dependent”. Further, the “cAMP hydrolyzing activity of fractions 19-23, 1 mM CaCl2 and 4 µg/ml CaM” value with Bovine brain calmodulin is listed as “The cAMP hydrolyzing activity of this forth peak is neither Ca^2+/CaM nor Gαt-rod peptide dependent”.
